According to patent publication US20220195015A1 (published 2022):

Biological target: SARS-CoV-2 RBD (S protein residues 319-539), wild type (SARS-CoV-2, UniProt P0DTC2 319-539)
Test: ELISA, RBD coated on plate, mAb titrated

| Binder | EC50 |
| --- | --- |
| C582 (antibody, V domains shown) VH: QVQLVESGGGVVQPGRSLRLSCVASGFTFSYFDMHWVRQAPGKGLEWVALISHDGSTTFYGDSARGRFTISRDNSRNTLDLQMNSLRPEDTAVYFCAKPVDAAMFDFWGQGTLVTVS VL: SYELTQPPSVSVAPGKTARITCGGNNIGSKSVHWYQQRPGQAPVLVIYYDSDRPSGIPERFSGSNSGNTATLTISRVEAGDEADFYCQVWDRSTNHLVVFGGGTQLTVL | 8.43 ng/mL |
| C589 (antibody, V domains shown) VH: QVQLQESGPGLVKPSQTLSLTCTVSGGSISSGDYYWSWIRQPPGKGLEWIGYIYYSGSTNYNPSLRSRVTISVDTSKNQFSLRLRSVTAADTAVYYCARDAIGSASYGVEYFQHWGQGTLVTVSS VL: not shown | 6.61 ng/mL |
| C588 (antibody, V domains shown) VH: EVQLVESGGGLVQPGGSLKLSCAASGFTFSGSAMHWVRQASGKGLEWVGRIRNKANSYATAYGASVRGRFTVSRDDSKNTAYLQMNSLKIEDTAVYYCTKDIAAGIPALNWFDSWGQGTLVTVSS VL: EIVLTQSPATLSLSPGERATLSCRASQSVSSYLAWYQQKPGQAPRLLIYDASNRATGIPARFSGSGSGTDFTLTISSLEPEDFAVYYCQQHTNWPPRITFGGGTKVEIK | 1.36 ng/mL |
| C585 (antibody, V domains shown) VH: QVQLQESGPGLVKPSETLSLTCTVSGDSISSYFWSWIRQPPGRGLEWIGYIHDSVNTNYNPSLKSRVTISVDTSKSQFSLRLSSVTAADTAVYYCARCAWLRGSFDYWGQGTLVTVSS VL: NFMLTQPHSVSESPGKTVTISCTGSSGSIASNYVQWYQQRPGSAPTTVIYEDNQRPSGVPDRFSGSIDSSSNSASLTISGLKTEDEADYYCQSYDFSSHYVFGTGTKVTVL | 11 ng/mL |
| C584 (antibody, V domains shown) VH: EVQLVESGGGLVQPGGSLRLSCAASGFTFSTYDMHWVRQATGKGLEWVSAIGTAGDKYYPGSVKGRFTISRENAKNSLYLQMNSLRAGDTAVYYCVRAGYSSGWPLYWYFDLWGRGTLVTVSS VL: DIQMTQSPSSLSASVGDRVTITCRASQSISSYLNWYQQKPGKAPKFLIYAASSLQSGVPSRFSGSGSGTDFTLTISNLQPEDFATYYCQQSYRTPPEFTFGPGTKVDIK | 10.5 ng/mL |
| C587 (antibody, V domains shown) VH: QVQLVQSGAEVKKSGSSVKVSCKASGGSFSSYAISWVRQAPGQGLEWMGGIIPIFGTAKYAQKFQGRVTITADESTSTAYMELSSLRSEDTAVYYCASRWEQLNGGSWHYFDYWGQGTLVTVSS VL: QSALTQPASVSGSPGQSITISCTGTRSDVGRNNLVSWYQHHPGKAPKVMIYEGSKRPSGVSTRFSGSKSGNTASLTISGLQAEDEADYYCCSYAGSSTFEGVFGGGTKLTVL | 4.39 ng/mL |
| C590 (antibody, V domains shown) VH: QVQLVQSGAEVKKPGASVKVSCKVSGYNLTELSMYWVRQAPGKGLEWMGGFDPEDGGPIHAQKFQGRVTMTEDPSTDTAYMELRSLRSEDTALYYCATGGLFMIRGLEIWGRGTLVTVSS VL: EIVLTQSPGTLSLSPGERATLSCRASQSISYTSLAWYQQKPGQAPRLLIFGASRGATGTPDRFSGSWSGTDFTLTISRLEPEDFAVYYCQQYGNSPRLSFGGGTKVEIK | 2.81 ng/mL |
| C586 (antibody, V domains shown) VH: EVQLVESGGGLIQPGGSLRLSCTASGLIVSSNYMSWIRQAPGKGLEWVSLIYSGGSTFYADSVKGRFTISRDNSKNTLFLHMNSLRAEDTAVYYCARHPYGTDVWGQGTTVTVSS VL: DIQMTQSPSSLSASVGDRVTITCQASQDIVKYLNWYQQKSGKAPKLLIHDASNLETGVTSRFSGSGSGTHFTFTISSLQPEDLATYYCQQYDNLPITFGQGTRLEIK | 5.42 ng/mL |
| C583 (antibody, V domains shown) VH: EVQLVESGGGLIQPGGSLRLSCAASILTVSRNYMSWVRQAPGKGLEWVSSIYSGGTTYYADSVKGRFTISRDDSKNTLYLQMNSLRAEDTAVYYCARPVVGGRAGMDVWGQGTTVTVSS VL: DIQMTQSPSSLSASVGDRVTITCQASQDINKYLNWYQQKPGKAPKLLIYDASNLETGVPSRFSGSGSGTDFTFTISSLQPEDIGTFYCLHNDNPPLTFGGGTKVEIK | 4.42 ng/mL |

Biological target: SARS-CoV-2 spike receptor binding domain (RBD), wild type (SARS-CoV-2, UniProt P0DTC2 319-539)
Test: ELISA on coated RBD protein

| Binder | EC50 |
| --- | --- |
| C002 (antibody, V domains shown) VH: EVQLVESGGGVVQPGRSLRLSCAASGFTFSIYGMHWVRQAPGKGLEWVAVISYDGSNKYYADSVKGRFTISRDNSKNTLYLQMNSLRAEDTAVYYCAKEGRPSDIVVVVAFDYWGQGTLVTVSS VL: not shown | 1.98 ng/mL |
| C021 (antibody, V domains shown) VH: QVQLQESGPGLVKPSQTLSLTCTVSGGSISSGGYYWSWIRQHPGKGLEWIGYIYYSGSTYYNPSLKSRVTISVDTSKNQFSLKLSSVTAADTAVYYCARVWQYYDSSGSFDYWGQGTLVTVSS VL: not shown | 4.19 ng/mL |
